Measured values as given in paper PMC5951847, “Substrate sequence selectivity of APOBEC3A implicates intra-DNA interactions”.

Assays:
A3A(E72A) [1] = biological target: T1, A3A(E72A) (Homo sapiens, UniProt P31941 1-199, E72A); experiment: fluorescence anisotropy; pH 6.0; 50 mM MES pH 6.0, 100 mM NaCl, 0.5 mM TCEP, room temperature overnight, 10 nM TAMRA-oligo; competition with 300 nM A3A(E72A); pH series: acetate 4.0-5.0, MES 5.5-6.5, HEPES 7.0-8.0, Tris 8.5-9.0; conditions: protein: recombinant; tags: His6-SUMO removed by Ulp1 (untagged); label: 5' TAMRA; hairpin
T1 sequence (P31941 whole entry E72A): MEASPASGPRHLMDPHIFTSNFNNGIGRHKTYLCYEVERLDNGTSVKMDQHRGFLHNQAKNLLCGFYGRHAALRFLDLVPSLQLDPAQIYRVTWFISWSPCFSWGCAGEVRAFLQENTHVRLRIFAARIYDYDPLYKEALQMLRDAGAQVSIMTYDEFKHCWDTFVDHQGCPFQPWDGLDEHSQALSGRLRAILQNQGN

A3A(E72A) [2] = biological target: T1, A3A(E72A); experiment: fluorescence anisotropy; pH 5.5; 50 mM MES pH 6.0, 100 mM NaCl, 0.5 mM TCEP, room temperature overnight, 10 nM TAMRA-oligo; competition with 300 nM A3A(E72A); pH series: acetate 4.0-5.0, MES 5.5-6.5, HEPES 7.0-8.0, Tris 8.5-9.0; conditions: protein: recombinant; tags: His6-SUMO removed by Ulp1 (untagged); label: 5' TAMRA

Binder | Kd (A3A(E72A) [1]) | Kd (A3A(E72A) [2])
GCCATCAAAAGATGGG (structured_DNA) [Hairpin-AAA] | 676 ± 399 nM | 
AAAATTCAAAAAA (ssDNA) [Poly A-TTC (pH series, 4A-TTC-6A)] |  | 68 ± 3 nM
